The source of these data is publication PMC314469, “Protein Interaction Networks by Proteome Peptide Scanning” (PLoS Biology, 2004).

Sequences and labels used below:
T1: amphyphisin SH3 (AMPH_HUMAN), P49418
T1 chain: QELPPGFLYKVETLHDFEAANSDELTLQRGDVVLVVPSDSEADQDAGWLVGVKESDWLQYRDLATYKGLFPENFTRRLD

One experiment addresses T1, amphyphisin SH3 (AMPH_HUMAN), P49418. Put plainly: SPOT array.
In turn, KPPKPPKPPRPPKT [Q9Y6N4 506-520] had a normalised SPOT signal, Boehringer light units (BLU); mean over the file's lines of this peptide of 3550.
Still for that read-out and setting: with KQVSPRRPQATEAV [Q9Y3H2 190-203] the figure was 147.
With KPASPKKPPPGERS [O60382 1692-1706], the normalised SPOT signal, Boehringer light units (BLU); mean over the file's lines of this peptide was 56.
Same read-out and setting: with KTHPLIRPFKTLTE [Q15413 2649-2662] the figure was 87.1; with KPQTIKRPLNPLAS [Q9UKV6 127-140], 9.
KRKKPSRPAKTRKR [Q9UNZ9 85-98] registered a normalised SPOT signal, Boehringer light units (BLU); mean over the file's lines of this peptide of 109.
On the same count and under the same terms, with KTEKPERPSRERDR [Q02241 662-675] the figure was 9120; with KRKKFKRPPQRLFD [O00267 328-341], 57.4; with KTFGIRRPLDPLDP [Q9C0J1 326-339], 36.6.
Same read-out and setting: with KPVSPRRPWSPSKE [Q9HCL7 1184-1197] the figure was 226; with KSKKFRRPDIQYPD [P10451 170-183], 24.7.
Still for that read-out and setting: with KTKGPSRPPLDAKI [Q9HC16 39-53] the figure was 29; with KQASLKRPPTAGAQ [Q9UBC5 553-566], 5.2.
Molecule KPEGLRRPPSKTSM [Q15047 1069-1082] gave a normalised SPOT signal, Boehringer light units (BLU); mean over the file's lines of this peptide of 32.3.
Still for that read-out and setting: with KSRTLKRPTVLEPI [O60469 1933-1946] the figure was 29.5; with KRVVPKKPPPSPQP [Q13438 518-532], 64.7.
Same read-out and setting: with KPGSPYRPPVPRAP [Q14687 646-660] the figure was 201; with KQYMLRRPALEDYV [Q9NWS7 207-220], 79.4.
KSLKLRRPLYAHLA [Q13304 138-151]: the normalised SPOT signal, Boehringer light units (BLU); mean over the file's lines of this peptide was determined as 31.7.
The same measure, in the same setting: with KPPKPPRPPKTLKL [Q9Y6N4 509-523] the figure was 1290; with KSLRIARPPKQGLN [P49815 945-958], 168; with KPRQIKRPLEDAIE [Q9UNI5 8-21], 57.1.
Still for that read-out and setting: with APALPARPHRGLST [Q9UFL7 72-85] the figure was 5990.
As to KPPALPRPIRNLEV [P47895 16-29], the normalised SPOT signal, Boehringer light units (BLU); mean over the file's lines of this peptide came to 118.
Still for that read-out and setting: with KPQPPARPPPPVLP [Q9UKL5 750-764] the figure was 1520.
Still for that read-out and setting: with KSLPLRRPSYTLGM [O43166 958-971] the figure was 51.5; with KRIKLRRPRVSKQR [Q96FU1 26-39], 12.4; with KRGRPGRPPSTNKK [O00539 35-49], 60.3.
The same measure, in the same setting: with KRNSLKRPRDVDHR [Q9H8U9 166-179] the figure was 27.9; with KNRTFLRPPKVKME [O75937 248-261], 77.8.
Consider KPASPKKPPPGERR [Q9UQ36 1183-1197], for which the normalised SPOT signal, Boehringer light units (BLU); mean over the file's lines of this peptide is 43.2.
On the same count and under the same terms, with KPQRPRRPASPIST [P07360 22-35] the figure was 2580.
Same read-out and setting: with KSQYFWRPKRMELS [Q9NYS8 813-826] the figure was 733.
The same measure, in the same setting: with KSPIPRRPTQSFVK [Q9ULL0 591-604] the figure was 24.8; with KSQGPAKPPPPRKP [Q13444 758-772], 1320; with KPSRPPRPSRPPPP [O43584 85-98], 8020.
In turn, ANPPPKRPVRASSR [Q9HCK1 771-784] showed a normalised SPOT signal, Boehringer light units (BLU); mean over the file's lines of this peptide of 14200.
The same measure, in the same setting: with ANLQPKRPKTIKQR [Q9NXX2 8-21] the figure was 23.6.

The next experiment has as its target endophilin SH3 (SH3G2_HUMAN), Q99962. The experiment in a line: SPOT array.
KPPKPPKPPRPPKT [Q9Y6N4 506-520] yielded a normalised SPOT signal, Boehringer light units (BLU); mean over the file's lines of this peptide of 16900.
On the same count and under the same terms, with KQVSPRRPQATEAV [Q9Y3H2 190-203] the figure was 125; with KPASPKKPPPGERS [O60382 1692-1706], 737; with KTHPLIRPFKTLTE [Q15413 2649-2662], 148.
The same measure, in the same setting: with KPQTIKRPLNPLAS [Q9UKV6 127-140] the figure was 52.2.
Still for that read-out and setting: with KRKKPSRPAKTRKR [Q9UNZ9 85-98] the figure was 175; with KTEKPERPSRERDR [Q02241 662-675], 403.
KRKKFKRPPQRLFD [O00267 328-341] displayed a normalised SPOT signal, Boehringer light units (BLU); mean over the file's lines of this peptide of 22.5.
With KTFGIRRPLDPLDP [Q9C0J1 326-339], the normalised SPOT signal, Boehringer light units (BLU); mean over the file's lines of this peptide was found to be 41.5.
Still for that read-out and setting: with KPVSPRRPWSPSKE [Q9HCL7 1184-1197] the figure was 1760; with KSKKFRRPDIQYPD [P10451 170-183], 40.5.
On the same count and under the same terms, with KTKGPSRPPLDAKI [Q9HC16 39-53] the figure was 2250; with KQASLKRPPTAGAQ [Q9UBC5 553-566], 55.2.
On the same count and under the same terms, with KPEGLRRPPSKTSM [Q15047 1069-1082] the figure was 41.2.
Molecule KSRTLKRPTVLEPI [O60469 1933-1946] registered a normalised SPOT signal, Boehringer light units (BLU); mean over the file's lines of this peptide of 50.9.
On the same count and under the same terms, with KRVVPKKPPPSPQP [Q13438 518-532] the figure was 278.
Still for that read-out and setting: with KPGSPYRPPVPRAP [Q14687 646-660] the figure was 1840; with KQYMLRRPALEDYV [Q9NWS7 207-220], 148; with KSLKLRRPLYAHLA [Q13304 138-151], 38.4.
With KPPKPPRPPKTLKL [Q9Y6N4 509-523], the normalised SPOT signal, Boehringer light units (BLU); mean over the file's lines of this peptide amounted to 25300.
The same measure, in the same setting: with KSLRIARPPKQGLN [P49815 945-958] the figure was 398; with KPRQIKRPLEDAIE [Q9UNI5 8-21], 30.7.
In turn, APALPARPHRGLST [Q9UFL7 72-85] displayed a normalised SPOT signal, Boehringer light units (BLU); mean over the file's lines of this peptide of 37600.
KPPALPRPIRNLEV [P47895 16-29] came in with a normalised SPOT signal, Boehringer light units (BLU); mean over the file's lines of this peptide of 958.
Same read-out and setting: with KPQPPARPPPPVLP [Q9UKL5 750-764] the figure was 10900.
For the molecule KSLPLRRPSYTLGM [O43166 958-971], the normalised SPOT signal, Boehringer light units (BLU); mean over the file's lines of this peptide worked out at 322.
The same measure, in the same setting: with KRIKLRRPRVSKQR [Q96FU1 26-39] the figure was 20.7; with KRGRPGRPPSTNKK [O00539 35-49], 2490.
The same measure, in the same setting: with KRNSLKRPRDVDHR [Q9H8U9 166-179] the figure was 0; with KNRTFLRPPKVKME [O75937 248-261], 55.9; with KPASPKKPPPGERR [Q9UQ36 1183-1197], 779.
Same read-out and setting: with KPQRPRRPASPIST [P07360 22-35] the figure was 9220.
Turning to KSQYFWRPKRMELS [Q9NYS8 813-826], the normalised SPOT signal, Boehringer light units (BLU); mean over the file's lines of this peptide came out at 232.
The same measure, in the same setting: with KSPIPRRPTQSFVK [Q9ULL0 591-604] the figure was 574; with KSQGPAKPPPPRKP [Q13444 758-772], 7680; with KPSRPPRPSRPPPP [O43584 85-98], 46000.
The same measure, in the same setting: with ANPPPKRPVRASSR [Q9HCK1 771-784] the figure was 8740.
Still for that read-out and setting: with ANLQPKRPKTIKQR [Q9NXX2 8-21] the figure was 55.4.
